# T1: LMP1重组蛋白抗原 (SEQ ID NO.2, 213-408aa of LMP1, expressed in E. coli) (Epstein-Barr virus, UniProt P29362 187-404)
# T1 construct: Recombinant fragment purified with NTA buffers (a tag from the expression vector is likely but is not described); also called LMP1蛋白
# T1 chain: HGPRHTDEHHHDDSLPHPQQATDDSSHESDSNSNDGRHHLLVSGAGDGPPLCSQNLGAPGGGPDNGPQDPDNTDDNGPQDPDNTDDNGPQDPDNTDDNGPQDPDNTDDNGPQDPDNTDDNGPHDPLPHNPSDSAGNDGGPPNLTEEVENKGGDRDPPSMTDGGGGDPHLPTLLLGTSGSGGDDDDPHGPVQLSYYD
# B1: 抗LMP1单克隆抗体 7B63B10 (secreted by hybridoma cell line 7B63B10, CCTCC NO: C2019160) (antibody, IgG2b, V domains shown)
# VH: EVKLVESGGGFVQPGGSRKLSCAASGFTFSSFGMHWVRQAPEKGLEWVAYISSGSSTIYYADTVKGRFTISRDNPKNTLFLQMTSLRSEDTAMYYCARDWVLDYWGQGTTLTVSS
# VL: DIVITQTPLSLPVSLGDQASVSCRSSQSLVHSNGNTYLHWYLQKPGQSPKLLIYKVSNRFSGVPDRFSGSGSGTDFTLNISRVEAEDLGVYFCSQSTHVPFTFGGGTKLEIKR
# notes: Mouse (Balb/c) hybridoma antibody, Ig type IgG2b; also called LMP1 7B63B10; 本发明单克隆抗体
# Target: T1, LMP1重组蛋白抗原 (SEQ ID NO.2, 213-408aa of …)
# Experiment: non-competitive ELISA by Beatty's method, power curve model
binder,measurement,value
B1,Ka,9e+09 M⁻¹

# Reference: patent CN111647564A (LI XIN; CHONG TUOTUO; LONG YUFEI, dated 2020)
